Assay [1] has as its target T1, recombinant cyno FGFR2b-Fc (Cynomolgus monkey).
T1 construct: also called Cynomolgus monkey FGFR2b ECD-murine Fc; cynomolgus FGFR2b
Briefly: ELISA, plate coated with 0.1 ug/ml cyno FGFR2b-Fc, anti-human IgG HRP detection. Here is the method:
(§1) The cross-species binding of Ab 36c to recombinant cyno, rat/mouse, and human FGFR2b-Fc fusion proteins was conducted with ELISA. In brief, 96-well ELISA plate were coated with about 100 ul/well 0.1 μg/ml recombinant human FGFR2b-Fc, recombinant rat/mouse FGFR2b-Fc, or recombinant cyno FGFR2b-Fc protein in PBS overnight. Then the plate was blocked with 2% BSA in PBS with 0.05% Tween20 and incubation with antibody samples for 60 min at room temperature, and then washed twice in 1×TBST (Cell Signaling Technology, #9997) and followed by incubation with anti-human lgG HRP (Horseradish peroxidase) conjugate for 60 min at a room temperature. HRP activity was detected with tetra-methylbenzidine substrate (Cell Signaling Technology, #7004) and the reaction was stopped with stop solution (Cell Signaling Technology, #7002). The plate was read at 450 nm. […] Ab 36c has the highest binding affinity to rat/mouse FGFR2b, followed by human FGFR2b, and then cyno FGFR2b.
(In general: An ELISA detects its analyte on a solid surface through an enzyme-linked reagent.)

Assay [2] concerns the target T2, recombinant rat/mouse FGFR2b-Fc (rat).
T2 construct: also called rat FGFR2b fused with murine Fc
Briefly: ELISA, plate coated with 0.1 ug/ml rat/mouse FGFR2b-Fc, anti-human IgG HRP detection. Here is the method: as §1

Assay [3] concerns the target T3, recombinant human FGFR4-Fc (human, UniProt P22455 22-369).
T3 construct: Bought (R&D Systems); not shown: human Fc of the bought fusion protein; not described
T3 sequence (looked up): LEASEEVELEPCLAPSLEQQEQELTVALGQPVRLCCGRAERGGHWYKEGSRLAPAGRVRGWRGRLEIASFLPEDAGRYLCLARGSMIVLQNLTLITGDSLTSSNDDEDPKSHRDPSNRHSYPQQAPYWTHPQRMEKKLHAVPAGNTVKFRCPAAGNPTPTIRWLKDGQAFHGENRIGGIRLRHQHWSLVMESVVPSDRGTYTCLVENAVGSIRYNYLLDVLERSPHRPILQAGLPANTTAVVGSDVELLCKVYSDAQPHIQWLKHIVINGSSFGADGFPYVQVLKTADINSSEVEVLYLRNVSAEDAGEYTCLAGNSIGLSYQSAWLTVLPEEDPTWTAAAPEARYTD
Kind of assay: ELISA, plate coated with HuFGFR4.

Assay [4] deals with T4, recombinant human FGFR1b-Fc (human, UniProt P11362-19 22-376, limits assumed).
T4 construct: Bought (R&D Systems); not shown: human Fc of the bought fusion protein; not described
T4 sequence (looked up): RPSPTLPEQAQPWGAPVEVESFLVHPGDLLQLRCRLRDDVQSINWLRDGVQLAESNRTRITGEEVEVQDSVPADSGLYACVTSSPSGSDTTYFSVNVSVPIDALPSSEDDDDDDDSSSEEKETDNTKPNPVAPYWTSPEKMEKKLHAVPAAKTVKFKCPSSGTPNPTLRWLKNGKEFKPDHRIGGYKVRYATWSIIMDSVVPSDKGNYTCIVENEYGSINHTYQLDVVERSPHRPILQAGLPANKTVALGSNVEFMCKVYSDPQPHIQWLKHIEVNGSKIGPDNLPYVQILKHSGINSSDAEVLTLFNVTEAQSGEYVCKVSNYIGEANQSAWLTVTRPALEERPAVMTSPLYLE
Briefly: ELISA, plate coated with HuFGFR1b.

Assay [5] has as its target T5, recombinant human FGFR3b-Fc (human, UniProt P22607-2 23-377).
T5 construct: Bought (R&D Systems); not shown: human Fc of the bought fusion protein; not described
T5 sequence (looked up): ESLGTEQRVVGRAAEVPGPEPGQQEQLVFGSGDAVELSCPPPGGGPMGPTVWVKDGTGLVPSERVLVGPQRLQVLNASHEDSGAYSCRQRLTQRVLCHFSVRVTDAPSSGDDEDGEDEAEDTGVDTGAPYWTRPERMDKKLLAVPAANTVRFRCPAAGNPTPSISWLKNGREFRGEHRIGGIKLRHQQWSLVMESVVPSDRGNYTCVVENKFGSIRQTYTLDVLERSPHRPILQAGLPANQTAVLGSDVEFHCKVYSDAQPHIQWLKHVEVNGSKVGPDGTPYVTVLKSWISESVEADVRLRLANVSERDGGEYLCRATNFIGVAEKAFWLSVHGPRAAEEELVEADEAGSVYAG
Kind of assay: ELISA, plate coated with HuFGFR3b.

Assay [6] concerns the target T4, recombinant human FGFR1b-Fc. Kind of assay: ELISA on FGFR family Fc fusion proteins.
Assay [7] has as its target T5, recombinant human FGFR3b-Fc. Briefly: ELISA on FGFR family Fc fusion proteins.
For assay [8], the target named is T3, recombinant human FGFR4-Fc. Briefly: ELISA on FGFR family Fc fusion proteins.

B1: Ab 36c (antibody, V domains shown)
VH: QPYLQQSGAELVRPGASVKMSCKASGYTFTSYNMHWVKQTPRQGLEWIGAIFPENGDTSYNQKFKGKATLTVDKSSSTAYMQLSSLTSEDSAVYFCARGGFDYWGQGTTLTVSS
VL: DIVMTQSHKFMSTSVGDRVSITCKASQDVSTNVAWYQQKPGQSPKLLIFSASYRYTGVPDRFAGSGSGTDFTFTISSVQAEDLAVYYCQQHYSSPYTFGGGTKLDIK
notes: Chimeric: mouse VH and VL fused to human heavy and light chain constant regions; also called chimeric Ab 36; Ab c 36c
On to B1, for which the “EC50 (read off the curve)” value in assay [1] was around 0.4 nM; in assay [2], around 0.2 nM.

B2: Ab 36 (antibody, V domains shown)
VH: QPYLQQSGAELVRPGASVKMSCKASGYTFTSYNMHWVKQTPRQGLEWIGAIFPENGDTSYNQKFKGKATLTVDKSSSTAYMQLSSLTSEDSAVYFCARGGFDYWGQGTTLTVSS
VL: DIVMTQSHKFMSTSVGDRVSITCKASQDVSTNVAWYQQKPGQSPKLLIFSASYRYTGVPDRFAGSGSGTDFTFTISSVQAEDLAVYYCQQHYSSPYTFGGGTKLDIK
notes: Mouse monoclonal antibody from a hybridoma; also called mouse Ab 36; antibody 36
As to B2, the binding result in assay [3], in assay [4] and in assay [5] was “no binding” throughout.

B3: Ab hu36-2 (antibody, human IgG1, V domains shown)
VH: QVQLVQSGAEVKKPGSSVKVSCKASGYTFTSYNMHWVRQAPGQGLEWIGAIFPENGDTSYNQKFKGRATITADKSTSTAYMELSSLRSEDTAVYYCARGGFDYWGQGTTVTVSS
VL: DIQMTQSPSSLSASVGDRVTITCKASQDVSTNVAWYQQKPGKAPKLLIFSASYRYTGVPSRFSGSGSGTDFTFTISSLQPEDIATYYCQQHYSSPYTFGQGTKLEIK
notes: Humanized antibody with human IgG1
B3: the binding result in assay [6], in assay [7] and in assay [8] was “no binding” throughout.

For orientation: EC50 (read off the curve) means the concentration that produces a half-maximal response.

Source of the values: patent US20230052680A1 (DIZAL JIANGSU PHARMACEUTICAL, published 2023).
